Test: soluble on expression in E. coli; label from the status in PepcDB or PDB records
With “MEPGTYELRGTVHDETFNTTVWTPYNFEGFYYSIDENVSTESLTLTEEISGRSIDDEALVYSTSPALVKFEQESWGSYQVIGFMAEKYFAGYPANTFGNSRSVSVLSDDILAKVLIDDDHKRSMFTGSSIALENGYSLKAAEVDVNGNRVLLELYRDGELVDSGITSSNGDYIYEADIGGAEDVPMIAAHISTVFRSRETDAVFIEGIFQVSDDYLELSQGDSFGKMEISTISSSGITMKNEDSISLSRGNTISLMGNVSFKVADSNVLRFYPFVEVKSAPQDQLRIETPDVFVVGEAAEISVTARDAAVSDVEIRLGNQSIGTTGDDGILAYTPTLEGDFTLYANKAGYLSGSKDVDIVLEHHHHHH” the “soluble on expression in E. coli” value was “soluble”.
In the case of “MDMKHTLLEALGIEIVENTAERCVAVMPVDHRTVQPFGYLHGGASVALAETAARPGAQNLIDHTTQACVGLEINANHLKSVKEGTVKAIAEPVHIGRTTIVYHIHIYDEQERLICISRCTLAVIKKLEHHHHHH”, the “soluble on expression in E. coli” value is reported as “soluble”.
With “MALKTAVHEKIMNDVVLAVKKNAEWKVLIVDQLSMRMVSACCKMHEIMSEGITLVEDINRRREPLPLLEAVYLITPTEESVKCLMADFQNPDNPQYRGAHIFFTEACPEELFKELCKSTTARFIKTLKEINIAFLPYESQIFSLDSPDTFQVYYNPSRAQGGIPNKERCAEQIATLCATLGEYPSVRYRSDFDENASFAQLVQQKLDAYRADDPTMGEGPQKDRSQLLILDRGFDPISPLLHELTFQAMAYDLLPIENDVYKYVNTGGNEVPEKEVLLDEKDDLWVEMRHQHIAVVSQNVTKKLKQFADEKRMGTAADKAGIKDLSQMLKKMPQYQKELSKYSTHLHLAEDCMKQYQQHVDKLCKVEQDLAMGTDADGEKIRDHMRNIVPILLDQKISAYDKIRIILLYIIHKGGISEENLAKLVQHAHIPAEEKWIINDMQNLGVPIIQDGGRRKIPQPYHTHNRKERQADHTYQMSRWTPYMKDIMEAAVEDKLDTRHYPFLNGGGPRPSCQQPVSVRYGHWHKDKGQASYKSGPRLIIFVVGGISYSEMRSAYEVTQTAKNNWEVILGSTHILTPEGLLRDLRKISNP” the “soluble on expression in E. coli” value was “soluble”.
With “MSTVQVPKLNTKDLLTLEELTQEEIISLIEFAIYLKKNKQEPLLQGKILGLIFDKHSTRTRVSFEAGMVQLGGHGMFLNGKEMQMGRGETVSDTAKVLSHYIDGIMIRTFSHADVEELAKESSIPVINGLTDDHHPCQALADLMTIYEETNTFKGIKLAYVGDGNNVCHSLLLASAKVGMHMTVATPVGYKPNEEIVKKALAIAKETGAEIEILHNPELAVNEADFIYTDVWMSMGQEGEEEKYTLFQPYQINKELVKHAKQTYHFLHCLPAHREEEVTGEIIDGPQSIVFEQAGNRLHAQKALLVSLFKNVEELS” the “soluble on expression in E. coli” value was “not soluble”.
With “GMSDEQHDSVWPPPGLDFSKPTIARVYDALLGGKDNFEADRALADYACKHIPGLKESAIENRKVLVRGVRFLAGEAGISQFLDLGSGLPTVQNTHEVAQSVNPDARVVYVDIDPMVLTHGRALLAKDPNTAVFTADVRDPEYILNHPDVRRMIDFSRPAAIMLVGMLHYLSPDVVDRVVGAYRDALAPGSYLFMTSLVDTGLPAQQKLARITRENLGEGWARTPEEIERQFGDFELVEPGVVYTALWRPDEPVDPDNLSPGEQLGMAGIGRKKA” the “soluble on expression in E. coli” value was “soluble”.
With “MSIVPGVVHSLYGDAKARWTINEYADLECPFCKVYTPRLKRWVDSHTDVNLVWRHLPLQMHGEAARHQARLVECAGIQGGAKAFWSAIDAIFAQSAGNGGGLPGGTLDFPDLDQARLEKCAKDMDLVDQLIKTDIDTARSNGITATPTLVIQDNQTGRSVKLEGMADETTLLSAIDWLAKDL” the “soluble on expression in E. coli” value was “not soluble”.
With “MVVEENCSMHHLERELDLELEIDMAMECAPIGRTIKSALLRAQSEARVIVGLSAAINVLSKSPEGSLFCLMAQPKDGDSATHMHEVLLEAFCYENDIYVIKVDDATKLSRILGQDSVESCCLVQKVWADAPEEQLTKAENQLVDYCEAHWDAPQQPIVQLPAV” the “soluble on expression in E. coli” value was “not soluble”.
For “MSLKEYTRPLEQGIDSDKNIFSVLEERVERTPDDNLVEYKNAQGEWAAFTAAEFKNKVVALAKGLIARGVMPGDSVSIIAHTCWQWTALDVAIMSIGALTVPVYETNSPAQVKMIFNDANVKMAFAEDDFQRDKIESVRDQCPDLGDVYVIGLGAIDTIIEYGRAVSDAEFLEREQAVKGSDLATIVYTSGSTGTPKGVELTHANFVFITYSGVNSMPDIAMKPNRRLLLFLPLAHVFARYMQFFCFAGNVSLGLSSNLKTILADFKAFKPTFILAVPRIFEKIYNAASQKAGAGFKGRVFADATQTACDWSHAQQSGGSIPLALNAKHALYNKLVYSSIMEVFGGHVEYAVSGGAPLDSSIAHFFNGVGLSLLEGYGMTETCAPSSVNPTEGYKIGTIGLPLQGVTMGVDEEGELCIKSPAVCAGYHNNPDVTKQQIVDGWLHTGDLGSIDDDGFVSIVGRKKDLIITAGGKNVSPCEMEASIMTSPVVSQCVMIGDRKPFIAAIISLDLAETNLWLESKGAEQVADLDEASKNPIVRAEVERAVNKANELASRAESIRKFEIVPDEFTEENGLVTPSMKARRQAVVEHYRTLIDKVIYVPRKPAAHAEEGHHHHHH”, the “soluble on expression in E. coli” value was “soluble”.
With “MVYVSNKYLTMSEMKVNAQYILNYLSSNGWTKQAICGMLGNMQSESTINPGLWQNLDEGNTSLGFGLVQWTPASNYINWANSQGLPYKNMDSELKRIIWEVNNNAQWINLRDMTFKEYIKSTKTPRELAMIFLASYERPANPNQPERGDQAEYWYKNLSGGGGGGLQLAQFPMDIINISQGENGSFSHKGTLCIDFVGKTEKYPYYAPCDCTCVWRGDASAYLAWTSDKEVMCADGSVRYITWVNVHESPLPFDVGKKLKKGDLMGHTGIGGNVTGDHWHFNVIDGKEYQGWTKKPDSCLAGTELHIYDVFAVNNVEIINGNGYDWKTSDWQDG” the “soluble on expression in E. coli” value was “soluble”.
With “TNTEQFCTGCHEMRDNVYAELKGTIHYTNRSGVRAICSDCHVPHNWTDKIARKTQASKEVWGKIFGTINTREKFVEKRLELAQHEWARLKANDSLECRNCHNYESMDFTRQSMRAQNMHSTYLADKSKTCIDCHKGIAHTLPRMPPDQTSLAPPAAGPARADTGHAER” the “soluble on expression in E. coli” value was “not soluble”.
For “MIESKTYAVLGLGNGGHAFAAYLALKGQSVLAWDIDAQRIKEIQDRGAIIAEGPGLAGTAHPDLLTSDIGLAVKDADVILIVVPAIHHASIAANIASYISEGQLIILNPGATGGALEFRKILRENGAPEVTIGETSSMLFTCRSERPGQVTVNAIKGAMDFACLPAAKAGWALEQIGSVLPQYVAVENVLHTSLTNVNAVMHPLPTLLNAARCESGTPFQYYLEGITPSVGSLAEKVDAERIAIAKAFDLNVPSVCEWYKESYGQSPATIYEAVQGNPAYRGIAGPINLNTRYFFEDVSTGLVPLSELGRAVNVPTPLIDAVLDLISSLIDTDFRKEGRTLEKLGLSGLTAAGIRSAVE”, the “soluble on expression in E. coli” value was “soluble”.
For “APTAPSIDMYGSNNLQFSKIELAMETTSGYNDMVKYHELAKIKVKFNQWSGTSGDTYNVYFDGVKVATGAITGSQTTASFEYGQGGLYQMEIEACDATGCSKSAPVEITIADTDGSHLKPLTMNVDPNNKSYNTDPSIVMGTYFVEWGIYGRDYTVDNMPVDNLTHILYGFIPICGPNESVKSVGGNSFNALQTACRGVNDYEVVIHDPWAAYQKSFPQAGHEYSTPIKGNYAMLMALKQRNPDLKIIPSIGGWTLSDPFYDFVDKKNRDTFVASVKKFLKTWKFYDGVDIDWEFPGGGGAAADKGDPVNDGPAYIALMRELRVMLDELEAETGRTYELTSAIGVGYDKIEDVDYADAVQYMDYIFAMTYDFYGGWNNVPGHQTALYCGSFMRPGQCDGGGVDENGEPYKGPAYTADNGIQLLLAQGVPANKLVLGTAMYGRGWEGVTPDTLTDPNDPMTGTATGKLKGSTAQGVWEDGVIDYKGIKSFMLGANNTGINGFEYGYDAQAEAPWVWNRSTGELITFDDHRSVLAKGNYAKSLGLAGLFSWEIDADNGDILNAMHEGMAGGVVTPPNRRSHHHHHH”, the “soluble on expression in E. coli” value was “soluble”.
In the case of “MGSDKIHHHHHHMAAVGPRTGPGTGAEALALAAELQGEATCSICLELFREPVSVECGHSFCRACIGRCWERPGAGSVGAATRAPPFPLPCPQCREPARPSQLRPNRQLAAVATLLRRFSLPAAAPGEHGSQAAAARAAAARCGQHGEPFKLYCQDDGRAICVVCDRAREHREHAVLPLDEAVQEAKELLESRLRVLKKELEDCEVFRSTEKKESKELLKQMAAEQEKVGAEFQALRAFLVEQEGRLLGRLEELSREVAQKQNENLAQLGVEITQLSKLSSQIQETAQKPDLDFLQEFKSTLSR”, the “soluble on expression in E. coli” value is reported as “not soluble”.
In the case of “MTEEMNQIDVQVPEVGDVVKGIVTKVEDKHVDVEIINVKQSGIIPISELSSLHVEKASDVVKVDDELDLKVTKVEDDALILSKRAVDADRAWEDLEKKFETKEVFEAEVKDVVKGGLVVDIGVRGFIPASLVEAHFVEDFTDYKGKTLSLLVVELDRDKNRVILSHRAVVESEQANKKQELLQSLEVGSVLDGKVQRLTDFGAFVDIGGIDGLVHISQLSHSHVEKPSDVVEEGQEVKVKVLSVDRDNERISLSIKDTLPGPWNQIGEKVKPGDVLEGTVQRLVSFGAFVEILPGVEGLVHISQISNKHIGTPHEVLEEGQTVKVKVLDVNENEERISLSMRELEETPKADQEDYRQYQAKEETSTGFQLGDLIGDKLNKLKLEHHHHHH”, the “soluble on expression in E. coli” value is reported as “soluble”.
With “MSLTTSIPAPPAESIDQVLNLISKGSNGAAQQSKHPLRIVMGSVMISEIGALISGVLKSLNNNFTTQKVWEEDYLVRVMAHLGLFAHAVGSQVSANDLTQLLTLYVQRLSARGFTDLVPLYLSFIPDDSDAREYYSKFLSSITDPSERTKQLQLVRKLGIDSNGDEERMANVLRRTVERVMADTEAEYRPSGEVTVQDEDTDVTETDTKICQSVDWYFENNMYPDAVSASLTVIRRFLACGRLAALRHFVRGKDLKQLVKNYDVDLYTRSLAGLDDGAQVGDADKDEIIQYHLFVQGLELIQDWRKFLKDNQTNSLSAVFWKSKHLESLIEKVSSGIVGLIRDWFQELIATDGTKKEMYQQLRVLYVPYLVMELLDIYQQARMSNWLYVKKAFELVSLVADEDNNDLLTCFVNCGRLDELMVRSGNLAAVACERGIANIFSEGHHHHHH” the “soluble on expression in E. coli” value was “soluble”.
With “MSGGLLIESVIPGSIASELEIEPGDRLVAVNNRPLRDIVDYNFHADGEELLLEIVKPSGEVWEVEVERDDDEALGLVFAAPEPARCGNRCVFCFVHQLPKGLRRPLYVKDEDYRLSFLYGNYVTLSNIGEEDLQRIIEQRLSPLYISVHATDPALRERLLGRKGIIPILDIMTRLAEARITMHTQAVLCPGWNDGDALRRTVADLASLYPRVASLAIVPVGLTRHRDRLPLLEPVSADYARDFIYEWLPEAQRLADAFGEPFLFLADEFFIKADAPFPPLDFYGDFPQIENGVGMIPLFMDEADRVLRRARRMKPRTLTVVTGHSPYRYLADFLARLSARTGITFQPVAIPNRLFGESVTVTGLVAGRDILSELAGRNLGDGVLIPDVMLKEGEGVFLDDLTIGALEQGLGVPVVVVPSSPAGVMEGIRALRPLEHHHHHH” the “soluble on expression in E. coli” value was “not soluble”.
In the case of “MERIERISEEIKREISDIIQNELKDPRLSKLISITEVNVTKDLRYAKVYVSVMGSEEEKANSLEGLKSAAGFIRREIGRRVQLRYTPEIHFELDNSIERGAYITKLINETSAQNKGSKDPEDT”, the “soluble on expression in E. coli” value is reported as “soluble”.
In the case of “MGSDKIHHHHHHMPFLLFKFPGKRVLGFSFEGRPHRHATGLSRFLDVHGAAYACELGRLSSELVGASEGALLKRLESLYDEILIDEVQDLSAHDWEIVDALLHSSIHIRMVGDIRQSVLATNPRSTKNKQYAYAETVKWFREREQLGRLAIRESVETWRCHPKIAAFSDTIFDASWAFPSTVSRNDAMTDHDGVFLLTKKHVRDYVERFAPQCLRSMAGSGKEFNLDFMNFKVAKGSTFERVLIMPTAGITDFVRKGSSLEPVPAASFYVAVTRAAQSVAMVIDNAGASTLPYWTP”, the “soluble on expression in E. coli” value is reported as “not soluble”.

From the DeepSol protein solubility set
